Source: US20230193513A1 (published 2023)

Target: T1, flag-GLP1R-GFP expressed on CHO cells (UniProt P43220 24-463)
T1 chain: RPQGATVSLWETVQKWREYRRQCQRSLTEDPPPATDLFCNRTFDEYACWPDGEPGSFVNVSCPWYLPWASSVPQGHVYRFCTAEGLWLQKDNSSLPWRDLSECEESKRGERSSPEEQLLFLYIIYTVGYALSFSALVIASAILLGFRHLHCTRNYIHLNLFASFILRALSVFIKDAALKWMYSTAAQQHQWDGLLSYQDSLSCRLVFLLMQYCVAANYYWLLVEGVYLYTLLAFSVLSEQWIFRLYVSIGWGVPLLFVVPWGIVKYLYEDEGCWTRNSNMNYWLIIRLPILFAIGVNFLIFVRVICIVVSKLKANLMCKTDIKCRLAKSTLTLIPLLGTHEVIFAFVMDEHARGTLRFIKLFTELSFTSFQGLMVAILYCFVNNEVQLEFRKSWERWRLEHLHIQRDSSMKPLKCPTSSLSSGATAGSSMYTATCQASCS
Assay: FACS cell binding

EC50: 0.0277 µM
B1: GLP1R-242 (antibody)
heavy: QVQLVQSGAEVKKPGSSVKVSCKASGGTFSSYEISWVRQAPGQGLEWMGGIIPILGIANYAQKFQGRVTITADESTSTAYMELSSLRSEDTAVYYCAKHMSMQADTGTFTSDVSSYLEGQAAKEFIAWLVKGEFSSRADLVGDAFDVWGQGTLVTVSSASASTKGPSVFPLAPCSRSTSESTAALGCLVKDYFPEPVTVSWNSGALTSGVHTFPAVLQSSGLYSLSSVVTVPSSNFGTQTYTCNVDHKPSNTKVDKTVERKCCVECPPCPAPPVAGPSVFLFPPKPKDTLMISRTPEVTCVVVDVSHEDPEVQFNWYVDGVEVHNAKTKPREEQFNSTFRVVSVLTVVHQDWLNGKEYKCKVSNKGLPAPIEKTISKTKGQPREPQVYTLPPSREEMTKNQVSLTCLVKGFYPSDIAVEWESNGQPENNYKTTPPMLDSDGSFFLYSKLTVDKSRWQQGNVFSCSVMHEALHNHYTQKSLSLSPG
light: QSVLTQPPSVSAAPGQKVTISCSGSSSNIENNDVSWYQQLPGTAPKLLIYGNDQRPSGIPDRFSGSKSGTSATLGITGLQTGDEADYYCGTWDNTLSAGVFGGGTKLTVLGQPKAAPSVTLFPPSSEELQANKATLVCLISDFYPGAVTVAWKADSSPVKAGVETTTPSKQSNNKYAASSYLSLTPEQWKSHRSYSCQVTHEGSTVEKTVAPTECS
